Measured values from US20100048462A1, “TRUNCATED PTH PEPTIDES WITH A CYCLIC CONFORMATION” (Zealand Pharma A/S, priority 2006, published 2010).
Values belong to the substance of their own block, whether it stands above or below them. Square brackets hold non-standard residues; d marks the D form. hArg = N=C(N)NCCCC[C@H](N)C(=O)O; Ac5c = NC1(C(=O)O)CCCC1; Aib = CC(C)(N)C(=O)O

Biological target: Saos-2 PTH1R (UniProt Q03431)
Test: cell-based or functional assay

Substance: H-Ac6c-Val-Aib-Glu-Ile-Gln-Leu-Leu-His-Gln-Har-Ala-Lys( )-Trp-Leu-Asn-Asp( )-NH2 (peptide)
Emax, cAMP efficacy assay in Saos-2 cells (10T, trifluoroacetate salt) (relative to control (SEQ ID NO: 32)): 1.08
pEC50, cAMP efficacy assay in Saos-2 cells (10T, trifluoroacetate salt): 7.9 -log(M)

Substance: (H-Ac5c-Val-Aib-Glu-Ile-Gln-Leu-Met-His-Gln-Har-Ala-Lys( )-Trp-Leu-Asn-Asp( )-NH2)2 (peptide)
Emax, cAMP efficacy assay in Saos-2 cells (39T, trifluoroacetate salt) (relative to control (SEQ ID NO: 32)): 0.95
pEC50, cAMP efficacy assay in Saos-2 cells (39T, trifluoroacetate salt): 8.3 -log(M)

Substance: H-Ac5c-Val-Aib-Glu-Ile-Gln-Leu-Leu-His-Gln-Har-Arg-Lys( )-Trp-Leu-Asn-Asp( )-NH2 (peptide)
Emax, cAMP efficacy assay in Saos-2 cells (28T, trifluoroacetate salt) (relative to control (SEQ ID NO: 32)): 0.95
pEC50, cAMP efficacy assay in Saos-2 cells (28T, trifluoroacetate salt): 8.27 -log(M)

Substance: H-Ac5c-Val-Nva-Glu-Ile-Gln-Leu-Leu-His-Gln-Har-Ala-Lys( )-Trp-Leu-Asn-Asp( )-NH2 (peptide)
Emax, cAMP efficacy assay in Saos-2 cells (16T, trifluoroacetate salt) (relative to control (SEQ ID NO: 32)): 1.03
pEC50, cAMP efficacy assay in Saos-2 cells (16T, trifluoroacetate salt): 6.92 -log(M)

The remaining lines, values ahead:

Emax, cAMP efficacy assay in Saos-2 cells (22T, trifluoroacetate salt) (relative to control (SEQ ID NO: 32)): 1.08
pEC50, cAMP efficacy assay in Saos-2 cells (22T, trifluoroacetate salt): 7.13 -log(M)
Substance: H-Ac5c-Val-Aib-Glu-Ile-Gln-Leu-Leu-His-Gln-Har-Ala-Lys( )-Trp-Leu-Asp-Asp( )-NH2 (peptide)

Emax, cAMP efficacy assay in Saos-2 cells (12T, trifluoroacetate salt) (relative to control (SEQ ID NO: 32)): 1.04
pEC50, cAMP efficacy assay in Saos-2 cells (12T, trifluoroacetate salt): 6.99 -log(M)
Substance: H-Nva-Val-Aib-Glu-Ile-Gln-Leu-Leu-His-Gln-Har-Ala-Lys( )-Trp-Leu-Asn-Asp( )-NH2 (peptide)

Emax, cAMP efficacy assay in Saos-2 cells (14T, trifluoroacetate salt) (relative to control (SEQ ID NO: 32)): 1.03
pEC50, cAMP efficacy assay in Saos-2 cells (14T, trifluoroacetate salt): 7.45 -log(M)
Substance: H-Ac5c-Val-Ac5c-Glu-Ile-Gln-Leu-Leu-His-Gln-Har-Ala-Lys( )-Trp-Leu-Asn-Asp( )-NH2 (peptide)

Emax, cAMP efficacy assay in Saos-2 cells (38T, trifluoroacetate salt) (relative to control (SEQ ID NO: 32)): 1.2
pEC50, cAMP efficacy assay in Saos-2 cells (38T, trifluoroacetate salt): 7 -log(M)
Substance: H-[Ac5c]V[Aib]EIQLMHQ[hArg]AKWLND-OH
